This is an account of results in paper doi:10.64898/2025.12.09.693204 (bioRxiv, 2025).

The target in the assay is Homo sapiens importin-β (Homo sapiens, UniProt Q14974 1-876). The experiment in a line: partitioning into phase-separated condensates.
Chain of Homo sapiens importin-β (Q14974 whole entry): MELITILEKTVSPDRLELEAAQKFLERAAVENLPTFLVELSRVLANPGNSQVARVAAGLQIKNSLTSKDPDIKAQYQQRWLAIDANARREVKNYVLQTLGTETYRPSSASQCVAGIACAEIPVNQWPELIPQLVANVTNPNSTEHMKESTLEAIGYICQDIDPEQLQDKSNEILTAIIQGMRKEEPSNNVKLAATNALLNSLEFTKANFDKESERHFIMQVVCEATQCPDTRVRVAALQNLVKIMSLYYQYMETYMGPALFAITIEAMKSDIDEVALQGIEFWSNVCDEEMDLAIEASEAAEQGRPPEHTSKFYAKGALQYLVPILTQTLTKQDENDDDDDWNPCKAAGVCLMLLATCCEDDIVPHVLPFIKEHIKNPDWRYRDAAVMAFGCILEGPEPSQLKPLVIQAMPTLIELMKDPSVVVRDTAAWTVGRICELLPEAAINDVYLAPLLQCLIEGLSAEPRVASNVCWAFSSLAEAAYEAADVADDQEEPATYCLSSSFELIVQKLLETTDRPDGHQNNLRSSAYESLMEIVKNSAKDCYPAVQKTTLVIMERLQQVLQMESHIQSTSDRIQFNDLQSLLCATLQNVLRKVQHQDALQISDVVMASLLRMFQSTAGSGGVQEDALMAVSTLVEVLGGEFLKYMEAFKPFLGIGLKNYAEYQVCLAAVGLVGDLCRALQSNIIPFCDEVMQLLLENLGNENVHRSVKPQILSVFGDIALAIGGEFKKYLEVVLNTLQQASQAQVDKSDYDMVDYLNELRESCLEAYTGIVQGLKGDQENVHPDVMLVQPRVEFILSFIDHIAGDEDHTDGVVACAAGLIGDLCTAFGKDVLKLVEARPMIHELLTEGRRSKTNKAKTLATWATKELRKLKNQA

B1: Homo sapiens NUP98 FG domain (residues 1-505, GLEBS domain residues 157-213 excluded) (domain or fragment, UniProt P52948 1-505, looked up)
chain: MFNKSFGTPFGGGTGGFGTTSTFGQNTGFGTTSGGAFGTSAFGSSNNTGGLFGNSQTKPGGLFGTSSFSQPATSTSTGFGFGTSTGTANTLFGTASTGTSLFSSQNNAFAQNKPTGFGNFGTSTSSGGLFGTTNTTSNPFGSTSGSLFGPSSFTAAGPQNQVGAGTTTGLFGSSPATSSATGLFSSSTTNSGFAYGQNKTAFGTSTTGFGTNPGGLFGQQNQQTTSLFSKPFGQATTTQNTGFSFGNTSTIGQPSTNTMGLFGVTQASQPGGLFGTATNTSTGTAFGTGTGLFGQTNTGFGAVGSTLFGNNKLTTFGSSTTSAPSFGTTSGGLFGNKPTLTLGTNTNTSNFGFGTNTSGNSIFGSKPAPGTLGTGLGAGFGTALGAGQASLFGNNQPKIGGPLGTGAFGAPGFNTTTATLGFGAPQAPVALTDPNASAAQQAVLQQHI
In the case of B1, the binding result was “binds”.
